The values that follow come from patent publication US20220387578A1.

Assay [1] deals with H12 HA A/duck/Alberta/60/1976, recombinant (influenza A virus).
The target in assay [2] is H15 HA A/shearwater/Western Australia/2576/1979, recombinant (influenza A virus).
The target in assay [3] is H14 HA A/mallard duck/Astrakhan/263/1982, recombinant (influenza A virus).
Assay [4] addresses H3 HA A/Hong Kong/1/1968 (H3N2), recombinant soluble trimer (influenza A virus) (UniProt Q91MA7).
Assay [5] concerns the target H2 HA A/Singapore/1/1957, recombinant soluble trimer (influenza A virus).
Assay [6] concerns the target H5 HA A/Indonesia/05/2005 (H5N1), recombinant (influenza A virus).
Assay [7] deals with H7 HA A/Shanghai/2/2013 (H7N9), recombinant uncleaved trimer (influenza A virus).
The target of assay [8] is H9 HA A/Hong Kong/1073/99, recombinant (influenza A virus).

For “rFluA-20 heavy chain mutant C101A (antibody)”, the half-maximal effective concentration (EC50) in assay [1] turned out to be 0.09 mg/L; in assay [2], 0.11 mg/L; in assay [4] it was 0.13 mg/L; in assay [5], 0.44 mg/L. Also, the EC50 relative to wild type rFluA-20 in assay [3], in assay [6], in assay [7] and in assay [8] was over 100 fold throughout.
For the substance “rFluA-20 light chain mutant Q55A (antibody)”, the EC50 relative to wild type rFluA-20 in assay [1] and in assay [2] was over 100 fold in each case.
As for “rFluA-20 light chain mutant N53A (antibody)”, the EC50 in assay [1] came to 0.03 mg/L; in assay [2], 0.06 mg/L; in assay [5], 0.16 mg/L; in assay [7], 0.87 mg/L; in assay [8], 0.17 mg/L. In addition, the EC50 relative to wild type rFluA-20 in assay [3] and in assay [6] was over 100 fold in each case.

What is called EC50 is the concentration at which the effect is half-maximal.
